PMC5674511, “Increase of enzyme activity through specific covalent modification with fragments” (Chemical Science, 2017)

Experiments:
[1] = test system: T1, CC(=O)N[C@H]1[C@H](Oc2ccc3c(C)cc(=O)oc3c2)O[C@H](CO)[C@@H](O)[C@@H]1O; test: fluorescence, 4MU release, Michaelis-Menten; type: biochemical, Bacteroides thetaiotaomicron
T1 construct: recombinant purified enzyme

[2] = test system: T1, CC(=O)N[C@H]1[C@H](Oc2ccc3c(C)cc(=O)oc3c2)O[C@H](CO)[C@@H](O)[C@@H]1O; test: fluorescence, 4MU release, Michaelis-Menten; type: biochemical, Bacteroides thetaiotaomicron; conditions: unmodified BtGH84_TM (no tethered fragment)
Source text: fluorescence, 4MU release, Michaelis-Menten on BtGH84

## BtGH84 (Bacteroides thetaiotaomicron VPI-5482; C441S/C675S/Y158F/Y571C)
[1]; unmodified BtGH84_QM
  Km: 11.215 ± 3.274 mM
  kcat: 77 ± 15 s⁻¹

## BtGH84 (Bacteroides thetaiotaomicron VPI-5482; C441S/C675S/Y571C)
[2]
  Km: 4.68 ± 0.22 mM
  kcat: 127 ± 6 s⁻¹
  kcat/Km: 27200 ± 2460 M⁻¹ s⁻¹

## BtGH84 (Bacteroides thetaiotaomicron VPI-5482; Y158F)
[1]; unmodified BtGH84_Y137F
  Km: 6.61 ± 1.282 mM
  kcat: 87 ± 4 s⁻¹
